B1: Gamma-crystallin C, residues 4 to 79; numbered along this chain, P07315 (parent)
chain: ITFYEDRAFQGRSYETTTDCPNLQPYFSRCNSIRVESGCWMLYERPNYQGQQYLLRRGEYPDYQQWMGLSDSIRSC

Variants of: B1
Experiment: abundance fitness (aPCA) (normalised: wild type 0, dead -1); higher = more abundant; growth selection in yeast, the domain comes from the species named
Details: Homo sapiens

Abundance fitness of substitutions, site by site:
G38: W -0.427 | H -0.309 | E -0.009 | L -0.177 | I -0.202 | M -0.141 | C -0.005 | S 0 | P -0.108 | R -0.153 | D 0.171 | K -0.177 | Y -0.109 | A -0.008 | T -0.191
Y26: P -0.046 | R -0.031 | K -0.047 | W -0.092 | S 0.045 | G 0.044 | M 0.078 | L 0.037 | F 0.033 | T -0.186 | E -0.138 | A 0.064 | Q -0.077 | N 0.052 | I 0.237 | H -0.082 | V 0.046 | D -0.179
S32: G -0.424 | P -0.857 | R -1.07 | Q -0.916 | W -0.889 | I -0.805 | D -0.812 | A -0.101 | L -0.985 | F -1.09 | H -0.642 | K -0.953
C30: E -0.95 | W -0.58 | G -0.582 | R -0.768 | S 0.03 | Y -0.472 | T -0.176 | F -0.176 | Q -0.713 | I -0.1 | P -0.079 | L -0.299
T17: Q 0.048 | M -0.124 | W -0.092 | V -0.006 | N -0.24 | S -0.061 | P -0.01 | R 0.034
P25: N 0.048 | E 0.086 | L 0.021 | K 0.008 | V 0.054 | Y -0.257 | C 0.227 | G 0.032 | Q -0.05 | S 0.047 | T 0.199 | D 0.323 | F -0.076 | M 0.005 | H -0.241 | I -0.174 | A -0.002
S28: Q -0.057 | R -0.045 | G 0.042 | E 0.093 | W -0.15 | H -0.014 | C -0.117 | P -0.115 | A -0.038 | F 0.044 | I -0.017 | D 0.166 | Y -0.012 | L -0.082 | N 0.058 | K 0.317 | V -0.03
T18: K -0.065 | P -0.847 | N 0.049 | S 0.044 | F -0.014 | I -0.031 | R -0.168 | L -0.023 | M -0.008 | W 0.017 | D 0.169 | E -0.02 | Q -0.333 | A 0.09 | C -0.165 | G -0.006 | V -0.03
V35: Q -0.854 | A -0.422 | M -0.84 | W -1.08 | Y -0.827 | E -1.11 | I -0.916 | P -1.03 | S -0.589 | L -0.038 | C -0.291 | R -0.893 | G -1.01 | T -0.081
Q24: R 0.007 | L 0.116 | K -0.048 | F -0.14 | S 0 | W 0.034 | P -0.308 | G 0.027 | D 0.13 | A -0.109 | Y 0.011 | C -0.131 | V 0.006 | I -0.056 | E 0.125
D19: H -0.074 | Y -0.187 | W 0.059 | I -0.011 | V -0.101 | Q -0.032 | G -0.101 | C -0.052 | R -0.027 | T -0.135 | L 0.042 | A -0.086 | M -0.037 | E -0.063 | P -0.35
S37: W -0.113 | I 0.072 | C -0.091 | E -0.12 | V 0.066 | T 0.028 | Q -0.124 | A -0.255 | R -0.004 | L -0.301 | G -0.061 | H -0.142 | M -0.031
I33: F -0.057 | T -0.494 | W -0.776 | S -0.642 | V -0.094 | R -0.883 | A 0.054 | E -0.676 | P -0.756 | C 0.074 | M 0.191 | K -0.835 | Q -0.792
P21: H -0.164 | Q 0.016 | K 0.016 | G 0.053 | A -0.028 | S -0.19 | R -0.131 | L -0.023 | M 0.075 | N 0.112 | T 0.006 | F -0.161 | C -0.119 | E -0.074 | W -0.05
N22: F 0.17 | K 0.064 | V 0.026 | Y 0.079 | A -0.041 | C -0.123 | W -0.19 | Q -0.046 | E -0.1 | H -0.176 | R 0.016 | D -0.004 | T 0.097 | G -0.158 | L 0.036 | S 0.012
L23: E -0.617 | R -1.01 | I -0.059 | T -0.081 | M 0.027 | Q -0.959 | A -0.173 | S -0.39 | G -0.727 | V 0.005 | N -0.676 | W -0.771
W40: D -0.849 | E -0.978 | C 0.03 | A 0.036 | I 0.01 | G -0.435
N31: T -0.056 | L -0.294 | V -0.052 | R -0.013 | S -0.019 | A -0.576 | G -0.069
F27: C -0.203 | T 0.079 | A 0.124 | I -0.144 | D -1.02 | G -0.186 | M 0.064 | Y -0.468 | L -0.09 | E -0.794 | K -0.658 | P -0.865 | S -0.109 | H -0.096 | R -0.269 | N -0.315
C39: P 0.092 | W 0.031 | G 0.08 | V 0.011 | M -0.027 | T -0.012 | A -0.051 | I -0.014 | R -0.071 | Y -0.014 | S 0.062 | Q -0.088 | L -0.074 | F -0.036 | D -0.133 | E -0.045 | N -0.12
R29: Y 0.024 | Q -0.117 | F 0.103 | D -0.239 | T 0.101 | W -0.053 | E -0.021 | S 0.059 | M 0.096 | A 0.085 | V -0.009
E36: K -0.074 | R -0.069 | N -0.004 | A 0.048 | S -0.032 | V 0.008 | Q -0.081 | L -0.078 | W 0.003 | M 0.019 | D 0.021 | T 0.11 | F -0.131 | P 0.018 | G -0.031 | I -0.201
C20: M 0.068 | D 0.169 | K -0.243 | L -0.042 | G -0.058 | S 0.104 | F -0.211 | Q -0.027 | E -0.041 | N 0.22 | T 0.019 | Y -0.079 | P -0.64 | V -0.133 | A 0.124 | W -0.103
R34: L -0.077 | Y -0.098 | D -0.382 | Q -0.041 | T 0.047 | E -0.373 | M -0.153 | A 0.026 | G -0.593 | V -0.039 | S -0.143 | P -0.827 | H -0.163 | W -0.045 | F -0.113 | C -0.107

Reference: the Human Domainome abundance scans (Beltran et al. 2025)
